Experimental data taken from article PMC5587609.
One block for each substance: values may come before it.

How the values were obtained:
[1] = biological target: TRPV6*-del3 (TRPV6* with eight residues, 473–480, deleted in the S4–S5 linker) (rat) (UniProt Q9R186); assay: SEC; FSEC traces of purified protein following tryptophan fluorescence; elution time corresponding to the tetrameric assembly
[2] = biological target: TRPV6*-del1 (TRPV6* with four residues, 477–480, deleted in the S4–S5 linker) (rat) (UniProt Q9R186); assay: as above
[3] = biological target: TRPV6*-del4 (TRPV6* with ten residues, 471–480, deleted in the S4–S5 linker) (rat) (UniProt Q9R186); assay: as above
[4] = biological target: TRPV6*-del2 (TRPV6* with six residues, 475–480, deleted in the S4–S5 linker) (rat) (UniProt Q9R186); assay: as above
[5] = biological target: TRPV6* (rat TRPV6 residues 1–668 with I62Y, L92N and M96Q; L495Q reverted to the native leucine) (rat) (UniProt Q9R186); assay: as above
[6] = biological target: TRPV6* (rat TRPV6 residues 1–668 with I62Y, L92N and M96Q; L495Q reverted to the native leucine) (rat) (UniProt Q9R186); assay: crystal structure; hanging drop, 20–24% PEG 350 MME, 50 mM NaCl, 50 mM Tris-HCl pH 8.0–8.5, 20 °C; also with 10 mM CaCl2 or 1 mM GdCl3; homotetramer
[7] = biological target: TRPV6_(cryst) (rat TRPV6 residues 1–668 with I62Y, L92N, M96Q and L495Q) (rat) (UniProt Q9R186); assay: as above

stoichiometry N [4]: 4
Substance: TRPV6*-del2 (TRPV6* with six residues, 475–480, deleted in the S4–S5 linker) (from UniProt Q9R186 1-668)

stoichiometry N [5]: 4
stoichiometry N [6]: 4
Substance: TRPV6* (rat TRPV6 residues 1–668 with I62Y, L92N and M96Q; L495Q reverted to the native leucine) (from UniProt Q9R186 1-668)

stoichiometry N [7]: 4
Substance: TRPV6_(cryst) (rat TRPV6 residues 1–668 with I62Y, L92N, M96Q and L495Q) (from UniProt Q9R186 1-668)

Continued, substance first:

Substance: TRPV6*-del3 (TRPV6* with eight residues, 473–480, deleted in the S4–S5 linker) (from UniProt Q9R186 1-668)
stoichiometry N [1]: 4

Substance: TRPV6*-del1 (TRPV6* with four residues, 477–480, deleted in the S4–S5 linker) (from UniProt Q9R186 1-668)
stoichiometry N [2]: 4

Substance: TRPV6*-del4 (TRPV6* with ten residues, 471–480, deleted in the S4–S5 linker) (from UniProt Q9R186 1-668)
stoichiometry N [3]: 4
